Results reported in patent US20220112547, “BIOCHEMICAL REACTION METHODS AND REAGENTS COMPRISING INTRINSICALLY DISORDERED REGIONS” (Biocrucible Limited, published 2022).

Legend:
[1] = biological target: T1, Gp32-HRP1 (phage vB_EcoM_NBG1); test: oligo enriched in phase-separated particles; MgOAc, RPA mix, no crowding agent; settings: tags: C-terminal HRP1 IDR (S. cerevisiae Hrp1) and 7xHis; label: FAM
T1 chain: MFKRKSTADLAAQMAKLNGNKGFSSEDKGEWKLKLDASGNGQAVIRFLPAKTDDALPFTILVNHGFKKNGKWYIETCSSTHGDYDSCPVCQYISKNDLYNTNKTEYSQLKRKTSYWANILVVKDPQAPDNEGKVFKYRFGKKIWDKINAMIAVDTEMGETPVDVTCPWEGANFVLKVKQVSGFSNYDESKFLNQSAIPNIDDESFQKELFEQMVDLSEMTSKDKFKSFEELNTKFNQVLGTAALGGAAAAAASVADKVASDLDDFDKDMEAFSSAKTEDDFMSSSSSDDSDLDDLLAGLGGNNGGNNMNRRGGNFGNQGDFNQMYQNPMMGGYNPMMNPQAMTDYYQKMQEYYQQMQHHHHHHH
Procedure: (§1) Reactions were set up according to the following protocol. A reaction mixture was created with the following components: 25 mM Tris HCl pH 8.3, 7.5 mM KOAc, 1 mM DTT, 2.5 mM ATP, 20 mM phosphocreatine, 1 μM creatine kinase, 1 mM dNTPs, 0.2 μM forward primer, 0.2 μM reverse primer, 0.516 μM probe, 22.6 μM Gp32-HRP fusion, 8.4 μM UvsX, 15.3 μM UvsY, 0.135 μM S. aureus DNA polymerase (large subunit), and 0.27 μM Exonuclease III. Gp32, UvsX, UvsY, polymerase and Exonuclease III were prepared as a premix before being added in one step to the mixture of primer, buffer, nucleotides and creatine kinase. The total volume was 44 Once combined, 6 μl of 280 mM MgOAc was added to the mixture to achieve a final concentration of 33 mM. 10 μl of the reaction mix was then transferred to a C-Chip haemocytometer slide which was placed on a heated stage set to 39° C. before being observed under the microscope where images were taken under bright field light conditions and fluorescence conditions.

[2] = biological target: T2, Gp32-HIS2 (phage vB_EcoM_NBG1); test: as above; settings: tags: C-terminal HIS2 IDR (human OTX1); label: FAM
T2 chain: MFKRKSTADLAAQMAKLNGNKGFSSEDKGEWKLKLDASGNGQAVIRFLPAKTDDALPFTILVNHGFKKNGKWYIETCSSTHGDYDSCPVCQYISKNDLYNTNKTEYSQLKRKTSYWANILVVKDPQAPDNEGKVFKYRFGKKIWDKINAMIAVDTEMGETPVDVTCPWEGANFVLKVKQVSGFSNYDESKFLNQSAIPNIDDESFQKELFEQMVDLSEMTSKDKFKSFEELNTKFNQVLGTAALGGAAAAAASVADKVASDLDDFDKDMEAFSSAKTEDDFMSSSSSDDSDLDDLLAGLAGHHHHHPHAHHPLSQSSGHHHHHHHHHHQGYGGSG
Procedure: as §1, with “Gp32-HIS2” for “Gp32-HRP”, “Gp32-His2,” for “Gp32,”

Question: Does CCGCAATGGTGCACTCTCAGTACAATCTGCTCTGATG (ssDNA) [FAM oligo probe] bind [1]?
Answer: binds

Question: Does CCGCAATGGTGCACTCTCAGTACAATCTGCTCTGATG (ssDNA) [FAM oligo probe] bind [2]?
Answer: binds
